Results from the supplement of paper PMC9170038.

Test system: MS2 coat protein
Experiment: apparent KD of MS2 coat protein; designed switch direction (-1 OFF switch, 1 ON switch): -1; higher = weaker reporter binding
In short: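 For each design, the apparent KD is the median over clusters of curves fitted to normalised cluster fluorescence. Clusters held RNA switches with common flanks, transcribed on Illumina chips by stalled E. coli RNA polymerase. These were titrated with SNAP-549-labelled MS2 coat protein, doubling from 0.7 or 1.5 nM to 3 µM, without input, with 200 uM small-molecule ligand, or with an oligonucleotide input.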

[1] = Eterna round: R95, input ligand: microRNA oligo, concentration not stated
[2] = input ligand: microRNA oligo, concentration not stated
[3] = Eterna round: R95, input ligand: FMN 200 uM
[4] = Eterna round: R95, input ligand: none

Sequence	apparent KD of MS2 coat protein [1] [nM]	apparent KD of MS2 coat protein (input ligand: FMN 200 uM) [nM]	apparent KD of MS2 coat protein (input ligand: none) [nM]	also measured
GUGAAACAUGAGGAUCACCCAUGUGAGGAUAUGUUUUAGUACUGCUGACAGUACAUCUAUAGAAGGCACAAAGG [Mat - Mod of JL D69] (puzzle: Exclusion 1)	25.4	–	–	–
AAUUAGCAAGCGAGAUCCCACAUGAGGAUCACCCAUGUGCUCGUCUUAUAAAAGACUGUGACGAAAGUCACGGUCAC [Mat - Sensor, turn-off var - Eli Mod - D26] (Eterna round: R97, puzzle: Sensor, turn-off variant 1)	–	14	15.9	–
UCACGGGACUAAGGAUAUAUGUGUACCAUUUUCAUAGAAGGUAGAAUGUUUGAUCAUAAACUAAACAUGAGGAUCACCCAUGUU [JR_ExcNG1_Sub091] (Eterna round: R96, puzzle: Exclusion NG 1)	–	–	–	apparent KD of MS2 coat protein [2]: 20.6 nM
CUUAAGGCAGGAUAUGCUUUUUGUGACAUGAGGAUCACCCAUGUGAUGCAGUUUGGGUUUGCAGAAGGGCCUGAGU [JR_E5_Sub034] (puzzle: Exclusion 5)	82.6	–	–	–
GGCAUAAACGAGGAUAUCGUUACGGAAACGUAACGAGAAGGUGUAACAUGAGGAUCACCCAUGUUCCUCAAGCC [Mat - Exclusion 6 - Eli Mod - D59] (puzzle: Exclusion 6)	28.9	–	–	–
AGUAGGUCUACCUUGGUGGAUCUGCAUUAUGCAAGUGUUACAUGAGGAUCACCCAUGUCCUCAUUUGCUCGUCUUAU [JL turnoff v2 99.23] (puzzle: Sensor v3, turn-off variant 2)	130	–	–	apparent KD of MS2 coat protein [3]: 37.1 nM; apparent KD of MS2 coat protein [4]: 36.2 nM
GAUCAUGCAGGAUAUACAGUAACCAUGAAAACAUGGUUGUAACAUGAGGAUCACCCAUGUAGAAGGGCAUGAUC [Omei Ex2 A4] (Eterna round: R97, puzzle: Exclusion 2)	–	23.5	15.4	–
GCUGCGCGAGGAUAUGCGGUUCGCGCUGUGGCCCGUGGCGCACAUGAGGAUCACCCAUGUAGAAGGCGUGCGGG [Apr-15 SS2-57] (puzzle: Exclusion 2)	9.52	–	–	–
AAGGAACAUGAGGAUCACCCAUGUAAGGAUAUGCAAAGAGAGAAAGAAGAAGGAGAAAGCAGAAGGUACAAGGA [JR_Exclu1_Sub072] (puzzle: Exclusion 1)	36.2	–	–	apparent KD of MS2 coat protein [3]: 47.3 nM; apparent KD of MS2 coat protein [4]: 65.8 nM
AACGCGUCAGGAUAUAGCGAAACUUAGGUAGUACAACCAUACUAGAAGGGACAUGAGGAUCACCCAUGUGGGUA [JR_Exc004_Sub210] (Eterna round: R96, puzzle: Exclusion 4)	–	171	142	apparent KD of MS2 coat protein [2]: 104 nM
AAAUAACUAGGAUAUCGAGGCACAGACAUGAGGAUCACCCAUGUGUGGUCUUCGUGCUUACGAGAAGGAGUACGGC [Teceri] (Eterna round: R96, puzzle: Exclusion 5)	–	199	305	apparent KD of MS2 coat protein [2]: 175 nM
GUGCCGCGAGGAUAUACAGACGGGUCCAAAACGUGUCUCGGACUUGAGGAUCACCCAAGUAGAAGGCUUUUCAG [salish99_ex2_r4_621] (Eterna round: R97, puzzle: Exclusion 2)	–	28.3	24.3	–
AGUAGUAGUAUCCGAUCCUACAUGAGGAUCACCCAUGUAGCUAGACGUGCACGCGAUGCGCGUCAGACUACCAGAUG [salish99_TOv1_r3_042] (puzzle: Sensor v3, turn-off variant 1)	159	–	–	apparent KD of MS2 coat protein [3]: 184 nM; apparent KD of MS2 coat protein [4]: 240 nM
UCUCUGCGAGGAUAUACGUGCGCGCGCGCGCGCGCGCGCGUACAUGAGGAUCACCCAUGUAGAAGGCGCUCUGC [Apr-15 SS2-3] (puzzle: Exclusion 2)	19.4	–	–	–
AACGAUACGCUCAUAAGAACAUGAGGAUCACCCAUGUGUGGUGAGGAUAUCCACCCAGAGGGAAAGGAGAAGGUACCAGUGGGC [Ries] (Eterna round: R96, puzzle: Exclusion NG 3)	–	31.3	61	apparent KD of MS2 coat protein [2]: 61.8 nM
CGCGUAUGAGGAUAUGCAUAAAAGGGUGCACUGAGUCUGUGACAUGAGGAUCACCCAUGUAGAAGGCGUGCGCA [Diquzain] (puzzle: Exclusion 2)	25.4	–	–	–
UUUUAGCAAGCUAUUAUUAACAUGAGGAUCACCCAUGUGCAUCCAAAAUUACUUUUAGAUCUUGCUCGUCUUAUAUA [JR_STOV1_v2_Sub084] (Eterna round: R97, puzzle: Sensor, turn-off variant 1)	–	1260	1600	–
AUAAAAGAGUUAGGAUAUCGGAAAGGAAGUGUACGAGAAGGAACGGUAUCCUCGGAAAGACAUGAGGAUCACCCAUGUAGAAAA [PowerStrip EXNG 1.6] (Eterna round: R96, puzzle: Exclusion NG 1)	–	34.9	35.4	apparent KD of MS2 coat protein [2]: 23.4 nM

Sequence	apparent KD of MS2 coat protein [1] [nM]	apparent KD of MS2 coat protein (input ligand: FMN 200 uM) [nM]	apparent KD of MS2 coat protein (input ligand: none) [nM]	also measured
AUUCCCGGUGUUAGGAUAUCCAACGCCCACGCGAUGGAGAAGGGACAUGAGGAUCACCCAUGUAGAGCUGCAUC [Aredan] (puzzle: Brourd's mod of Exclusion 4)	11.7	–	–	–
ACCAGAAUAGGAUAUAACGAAAAGGACAUGAGGAUCACCCAUGUGACUACUAUUCCCUUGUUAGAAGGAUUGCGGG [Eternabot (L2) Solution 48] (Eterna round: R97, puzzle: Exclusion 5)	–	32	24.9	–
AUUAUUACAUAGGAUAUAAAAGAGCUCACUCAGUUAGAAGGAUGUACAUGAGGAUCACCCAUGUGAUUCUGGCU [Eternabot (L2) Solution 58] (Eterna round: R97, puzzle: Exclusion 6)	–	26.3	25.2	–
CGAUGAGGAGUGAGGAUAUCGUGUUCGAAAGAACGUGAGAAGGCACAUGAGGAUCACCCAUGUGAUCCUCAUCG [Omei Ex4B A21] (Eterna round: R97, puzzle: Brourd's mod of Exclusion 4)	–	29.8	24.8	–
CCAGGAAGGCAGGAUAUCCAAAGCCGUCCCGGCGGAGAAGGGCUAACUUGAGGAUCACCCAAGUGAUGCCUAAC [Oreden] (Eterna round: R97, puzzle: Exclusion 6)	–	13	14.2	–
AGUUGGCGAGGAUAUACAUGAGGAUCACCCAUGUGAAAUUAAAGUGAGGAAAUGAAAAGUAGAAGGCGCUGACA [Mat - Exclusion 3 - Mod of Salish D56] (puzzle: Exclusion 3)	31.7	–	–	apparent KD of MS2 coat protein [3]: 277 nM; apparent KD of MS2 coat protein [4]: 46.7 nM
GGUUGGCGAGGAUAUACAUGAGGAUCACCCAUGUGAGAGAAAAAAGUGAGGAAGAAAAGUAGAAGGCGCUGACG [salish99-ex3-champ] (puzzle: Exclusion 3)	49.3	–	–	apparent KD of MS2 coat protein [3]: 412 nM; apparent KD of MS2 coat protein [4]: 44.5 nM
AUAACAUGCUGGUGAUCAUACAUGAGGAUCACCCAUGUAACAAGCUUUUUGUUCGUCUUAUAAUUUAAGAUCACCAG [Stov1/7-B2] (Eterna round: R97, puzzle: Sensor, turn-off variant 1)	–	21.7	19.2	–
GUAUACAGAGGAUAUACGUGCGGCGUCAAAUGUCCAAGAGUACAUGAGGAUCACCCAUGUAGAAGGUUGAAAGC [Eternabot (L1) Solution 15] (Eterna round: R97, puzzle: Exclusion 2)	–	21.7	26.6	–
CUCCGGCGUGUAGGAUAUGGAUCCGAUUAGGAUCCAGAAGGACAUGAGGAUCACCCAUGUACAUGUCGUCGGUCGUCACCGGGC [salish99_ExNG1_r04_210] (Eterna round: R96, puzzle: Exclusion NG 1)	–	52.7	32.2	apparent KD of MS2 coat protein [2]: 22.2 nM
CUCUAGUCAGGAUAUUAGUUGUCGCCCAGCAACGGGCGACAUGAGAAGGGACUUGAGGAUCACCCAAGUAAACG [Leorteti] (Eterna round: R97, puzzle: Exclusion 4)	–	279	478	–
GAAAAGAGAGGAUAUACUUGAGGAUCACCCAAGUAGGCGGUAACCGCCACGGGCCAGAGUAGAAGGCUCAAAAC [Beceanlave] (Eterna round: R97, puzzle: Exclusion 3)	–	141	32.2	–
UUAUUAUAUGUAGGAUAUGCAUAUUAUUAUUAUGCAGAAGGACAUGAGGAUCACCCAUGUAUAUUGUUGUUAUGUAUUAUAUAU [Title] (Eterna round: R96, puzzle: Exclusion NG 1)	–	40.4	31.3	apparent KD of MS2 coat protein [2]: 24.1 nM
GUGUAGAUAGGAUAUACGUGAGUCUAGCGAAGCUAGAUUCUACAUGAGGAUCACCCAUGUAGAAGGGUCUACAC [Fiskers Ex 2 - 27] (puzzle: Exclusion 2)	15.1	–	–	–
AUUAUAUAGAAAGGAUAUAGAUUAUUAUUUUAACAUGAGGAUCACCCAUGUAGCCUUAUGUAUAACUAGAAGGUUCAUUUAUUA [Title] (Eterna round: R96, puzzle: Exclusion NG 2)	–	–	–	apparent KD of MS2 coat protein [2]: 57.9 nM
GCUAGAGCAGGAUAUUUAAAUCCUCACAUGAGGAUCACCCAUGUAGUCGAAAGACUAAGAAGAGAAGGGCUCUAGC [Omei Ex5 E20] (Eterna round: R97, puzzle: Exclusion 5)	–	951	230	–
UUCUGCACGCUGCGGUCCUACAUGAGGAUCACCCAUGUGGUCUGGUGGCGUGGGUCACCGGACUUGGCUCGUCUUGC [salish99_S_TOV1_R5_053] (Eterna round: R97, puzzle: Sensor, turn-off variant 1)	–	20.1	21.1	–
